Assay: yeast display, Sf9 membrane polyspecificity reagent, FACS + sequencing; frameworks hold sequencing errors
How it was run: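 In a synthetic yeast display library (Saccharomyces cerevisiae BJ5465), nanobody expression was induced with galactose for 36–48 hours. FACS gates were set low and high (top ~1%) using anti-HA fluorescence for expression and streptavidin fluorescence for binding of the Sf9 membrane reagent. Each polyreactivity label is drawn from the gate of origin.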

## QVQLVESGGGLVQAGGSLRLSCAASGIISIFNVMGWYRQAPGKERELVASITGRGGSTFYADSVKGRFTISRDNAKNTVYLQMNRLKPEDTAVYYCATDTGYTYPVTGLYDYWGQGTQVTVSS
  polyreactivity (PSR sort gate): low polyreactivity

## QVQLVESGGGLVQAGGSLRLSCAASGIIFSTYAMGWYRQAPGKDRELVAAITSTGSTNYADSEKGRFTISRDNAKTTVSLQMNSLKPEDTAVYFCAARYAGPSPTDTGHDYWGQGTQVTVSS
  polyreactivity (PSR sort gate): low polyreactivity

## QVQLVESGGVLGQAGGSLRLSCAASGFIFSTYTMAWYRPAPGKERDLVAAISRSGGRTYYADSVKGRFTISRDNAKYTVYLQMNSLKPEDTAVYYCNAAKGGRYPDYDYWGQGTQVTVSS
  polyreactivity (PSR sort gate): high polyreactivity

## QVQLVESAGGLVQAGGSLRLSCAASGFTFGKNSMGWYRQAPGKERELVAAISGSGSRTYYADSVKGRFTISRDNAKNTVYLQMNSLKPEDTAVYYCAAAVTGSYASDYWGQGTQVTVSS
  polyreactivity (PSR sort gate): high polyreactivity

## QVQLVESGGGLVQAGGSLLLSCAASGRTSAYYAMGWYRQAPGKERELDAGITRGGRTNDADSVKWRFTISRDNAKYTDYFQMNSLNPEDTAVYYCAAKYGFYWNSRTSGYWGQVTQVTVSS
  polyreactivity (PSR sort gate): high polyreactivity

## QVQLVESGGGLVQAGGSLRLSCAPSGRTLRVNTMGWYRQAPGKERELVAAISSGGSRTNYADSVKGRFTISRDNAKNTVYLQMNSLKPEDTAVYYCNKYNRFVYSPPSVYWGQGTQVTVSS
  polyreactivity (PSR sort gate): high polyreactivity

## QVQLQESGGGLVQAGGSLRLSCAASGSIFLFYTMGWYRQAPVKEREFVAGITLGTTTYNADSVKGRFTISRDNVKNTVYLQMNSLKPEDTAVYYCAVAVGHYTEFWYWGQGTQVTMSS
  polyreactivity (PSR sort gate): high polyreactivity

## QVQLVESGGGLVQAGGSLRLSCAASGITFEVNAMGWYRQAPGKERELVAAISRSAGSTYYADSVKGRFTISRDNAKNTVYLQMISLKPEDTAVYYCATALRYARSRNRFYYWGQGTQVSVSS
  polyreactivity (PSR sort gate): high polyreactivity

## QVQLVESGGGLVQAGGSLRLSCAASGFTFRYYVMGWYRQAPGKERELVAAISTRGGRTYYADSVKGRFTISRDNAKNTVYLQMNSLKPEDTAVYYCAKDAHHSYTWGYGYWGQGTQVTVSS
  polyreactivity (PSR sort gate): high polyreactivity

## QVQLVESGGGLVQAGGSLRLSCAASGRIFWRNTMGWYRQAPGKERELVAAITRTGGSTYYADSVKGRFTISRDNAKNTVYLQMNSLKPEDTAVYYCAAQQHYGDGYWGQGTQVTVSS
  polyreactivity (PSR sort gate): high polyreactivity

## QVQLVESGGGLVQAGGILRLSCAASGSTFARYAMGWYRQEPGKERELVAVIRSGGSTNYADSVKGRFTISRDNAKNTVYLQMNSLKPEDTAGAADQWTIHRWATYGYWGQGTQVTVSS
  polyreactivity (PSR sort gate): low polyreactivity

## QVQLVESGGGLVQAGGSLRLSCAGSGLIFDDYPMGWYRQAPGKERELVAAISWSDGTTYYADSVKGRFTISRDNAKNTVYLQMNSLKPEDTAVYYCAAEEVSGWEYDYWGQGTQVTVSS
  polyreactivity (PSR sort gate): high polyreactivity

## QDQLVESGGGLVQAGGSLRLSCAASGRTFWRYALGWYRQAPGKEREMVAAISSGGITYYADSVKGRFTISRDNAKNTVYLQMNSLKPEDTAVYYCARYGPYESSYHYDYWGQGTQVTVSS
  polyreactivity (PSR sort gate): high polyreactivity

## QVQLVESGGGLVQAGGSLRLSCAASGSIFYGYAMGWYRQAPGKEREFVASINSGVGSTYYADSVKGRFTISRDNAKNTVYLQMNSLKPEDTAVYYCNKVHRSFTYNDGQTPAYDYWGQGTQVTVSS
  polyreactivity (PSR sort gate): low polyreactivity

## QVQLVESGGGLVQAGGSLRLICAASGSIFGVYAMGWYSQAPGKERELVATITRGGSTYYADSVKGRFTISRDNAKNTGYLQMNSLKPEDTSVYYGARAPVYFRHKYYYWGQGTQVTVSS
  polyreactivity (PSR sort gate): high polyreactivity

## QVQLVESGGGLVQAGGSLRLSSAASGLTFKGYAIGWYRQEPGKESELVAANNGSGGSTYYADSVKRRFTISRDNAKNTVYLQMNSLKPEDTAVYYCNAARGHPYPLSDNVDDYDYWGQGTQVTVSS
  polyreactivity (PSR sort gate): low polyreactivity

## QVQLVESGGGLVQAGGSLRLSCAASGRIFRRNTMGWYRQAPGIERELVAAITSSGGSTYADSVKGRFTISRDNAKNTVYLQMNSLKPEDTAVYYCATYVAYHRGYRTYDHWGQGTQVTVSS
  polyreactivity (PSR sort gate): low polyreactivity

## PVQLVESGGGLVQAGGSLRLSCAASGFTFYSYAMGWYRQAPGKEREFVAAGSTYYADSVKGRFTISRDNAKNTVYLQMNSLKPEDTAVYYCAADPWIYVQSYGFWGQGTQVTVSS
  polyreactivity (PSR sort gate): low polyreactivity

## QVQLVESGGGLVQAGGSLRLSCAASGRIFVYYVMGWYRQAPGKERELVAAITYSGGSTYYADSVKGRFTISRDNAKNTVYLQMNSLKPEDTAVYYCNKVDAFGIVRLYYWGQGTQVTVSS
  polyreactivity (PSR sort gate): low polyreactivity

## QVQLVESGGGLVQAGGSLRLSCAASGIIFWYYAMVWYRHAPGKERELVASISGTGGTTYYADSVKGRFTISRDNAKNTVYLQMNSLKPEDTAVYDCSALSGQHDYDYWGQGTQVTVSS
  polyreactivity (PSR sort gate): low polyreactivity

## QVQLVESWGGLVQAGGSLRLSCAASGSTIDTNTMGWYRQAPGKEREWVAAITWSDASTYADSVKGRFTISRDNAKNTVYFQMNSLKPEDTAVYYCNADWTITVGYDYWGQGTKVTVSS
  polyreactivity (PSR sort gate): low polyreactivity

## EEELVESGGGFVQVGGSLRLSCAASGSIFVENAMGWYRQAPGKARELVAAITSGGSTNYADSVKGRFTISRDNAKNTVYLQMNSLKPEDTAVYYCNADENYGYYTHFGYWGQGTQVTVSS
  polyreactivity (PSR sort gate): low polyreactivity

## QDHLVESGGGVVQAGGSLRLSCAATGSTIYRYPMGSYRQAPGNERELVAAISTRGGSTYYADSVKGRFTISRDNRKNTVYLQMNSLKPVDTAVYYCAAKCGSPDDYDYWGQGTQVTVSS
  polyreactivity (PSR sort gate): high polyreactivity

## QVQLVESGGGLVQAGGSLRLSCAASGFIFQIYAMGWYRQAPGKERELVAAISSGGSTNYADSVKGRFTISRDNAKNTVYLQMNSLKPEDTAVYYCAAATHYWYFYSFKDKSGFRGYYWGQGTQVTVSS
  polyreactivity (PSR sort gate): high polyreactivity

## QVQLVESGAGLVHAGGSLRFSCAPSGIIIYRYAMGWYRQAPGKERELVAGISQRGGNTYYADSVKGRFTISRDNEKNTVYLQMYSLKPEDTAVYYCAAPYYGTRTNNRHEYWGLGTQVTVSS
  polyreactivity (PSR sort gate): high polyreactivity

## QVQLVETGGGLVQAGGSLRLSCAASGLTFYYYTMGWYRQAPGKERELVAAITSGGSTYYADSVKGRFTISRDNAKNTVYLQMNSLKPEDTAVYYCAAVPSRYGRYRYYYWGQGTQVTVSS
  polyreactivity (PSR sort gate): high polyreactivity

## QVQLVESGGGLVQAGGSLRLSCAASGRTFQWYAMGWYRQAPGKERELVAAIRYSAGSTYYADSVKGRFTISRDHAKNTVYLQMNSLKREDTAVYYCAAEPYPYGPYYFLWLRYDYWGQGTQVTVSS
  polyreactivity (PSR sort gate): low polyreactivity

## QVQLVESGGGLVQAGGSLRLSCAASGRTFFQYAMGWYRQPPGKARELVAAIRWSDSTYYADSVKGRFTISRDNAKNTVYLQMNSLKPADTAVYYCAAPRVSQYSTKKYDYWGQGTQVTVSS
  polyreactivity (PSR sort gate): low polyreactivity

## QVQLVESGGGLVQAGGSLRLSCAASGRIFDSYTMGWYRQEPGKERELVAAISGGGITNYADSVKGRFTISRDNAKNTVYLQMNSLKPEDTAVYYCAARDRYYFGGMYYWGQGTQVTVSS
  polyreactivity (PSR sort gate): low polyreactivity

## QVQLVESGGGLVLAGGSLRLSCAASGSTFTRNAMGWYRQAPGKERELVATISSGGSTNYADSVKGRFTISRDNAKNTVYLQMNSLKPEDTAVYYCAKRSLYRYYYWGQGPQVTVSS
  polyreactivity (PSR sort gate): high polyreactivity

## QVQLVESGGGLVQAGGSLRLSRAASGITFRFYAMGWYRQAPGKERQVVARISSSGSRTYYADSVKVRFTISRDNAKNTVYLQMNSLKPEDTAVYYCNAVRRRYQSLLQGDYWGQGTQVTVSS
  polyreactivity (PSR sort gate): high polyreactivity

## QVQLVESGGGLVQAGGSLRLSCAASGSTLVRYAMGWYRQAPGKERELVAAISGSGGSTFYADSVKGRFTISRDNAKNSVYLQMNSLKPEDTAVYYCAARYYWYGRAGNKHASYYYWGQGTQVTVSS
  polyreactivity (PSR sort gate): high polyreactivity

## QVQLVESGGGLVQAGGSLRLSCAASGRTFYRNAMGWYRQAPGKDRELVAAISSGGSTTYADSVKGRFTISRDNAKNTVFFQMNSLKPEATAVYYCAARSHAGSVSPRLKEYDYWGQGTLVTVSS
  polyreactivity (PSR sort gate): low polyreactivity

## QVQLQESAGVLVQAGGSLRLRCSASGYISCHASMGWYRQAPGKEGELAASITKGSSTNYADSVKGRFTIRDNAINTVFLQMNSLKPEDTAVCYCAVTYPYWGDYTYWGQGTQVTVSS
  polyreactivity (PSR sort gate): low polyreactivity

## QVQLLESGGGLVQAGRSLRLSCAASGSIFRSYAMGWSRQAPGKERELVAAISRRGGSTYYADSVKGRFTISRDNAKNTVYLQMNSLKPEDTAVYYCAADRTGPYDYWGQGTQVTVSS
  polyreactivity (PSR sort gate): high polyreactivity

## QVQLVESGGGLVQAGGSLRLSCAASGLTFGDYAMGWYRQAPGKEREFVAAISSSTGRTYYADSVKGRFTISRDNAKNTVYLQMNSLKPEDTAVYYCAVRYIYPSHYGYDYWGQGTQVSVSS
  polyreactivity (PSR sort gate): low polyreactivity

## QVQLVESGGGLVQAGGSLRLSCAASGSIFTRYTMGWYSQAPGKERELVAVISDSSGRTYYADSVKGRFTISRDNAKNTVYLQMNSLKPEDTAVYYCAAEYSDIYEYWGQGTQVTVSS
  polyreactivity (PSR sort gate): low polyreactivity

## QVQLVESGGGLVQAGGSLRLICAASGSIFNAYAMGWYRQAPGKEREFVAAITGGGTYYADSVKGRFTISRDNAKNTVYLQMNSLKPEDTAVYYCNADYGTSRHTFWDYESWGQGTQVTVSS
  polyreactivity (PSR sort gate): low polyreactivity

## QVQLLESGGGLVQAGGSLRLSCMASGSILGDRMSWYLQPPGKEHELVATIYDGGITYYADSMKGRFTISRDNAKNTVYLQMNSLRPEDTAVYYCGASFEGYRYNVYCGQGTQVTVSS
  polyreactivity (PSR sort gate): low polyreactivity

## QVQLVESGGRLVQAGGSLRLSCAASGSTFARNAMGWYRQAPGKERELVAAISSSGGRTYYADSVKGRFTISRDNAKNTVYLQMNSLKPEDTAVYYCAAAFSLGMYWGQGTQVTVSS
  polyreactivity (PSR sort gate): high polyreactivity

## QVQLQESGGGLVRAGGSLRLSCAASGYISTSIAMGWYRQAPGKERELVASFGRGAITNYADSVKGFTISRDNGKNSVYLQMNSLKPEDTAVYYCAVYHGDRGYYSYWGQGTQVNVSS
  polyreactivity (PSR sort gate): low polyreactivity

## QVQLQESGGGLVQAGGSLLSCAASGTISWVDEMGWYRQAPGNERELVAGIAGGGNTNYADSVKGRFTISRDNAKNTVYLQMNSLDTAVYYCAGWDYTGNVVTGDYWGQGTQVTVSS
  polyreactivity (PSR sort gate): high polyreactivity

## QVQLVESGGGLVQAGGSLRLSCAASGRIFVSNDMGWYSQAPGKERELVAAISWSDDSTHYADSVKGRLTISRDNAKNTVYLQMNSLKPEDTAVYYCNKQRYYSTWRYDYWGQGTQVTVSS
  polyreactivity (PSR sort gate): low polyreactivity

— the nanobody polyreactivity screen of Harvey et al. (2022)
